Source: patent US20260242419A1, “A CYCLIC PEPTIDE FOR TRAPPING INTERLEUKIN-1 BETA” (Merck Sharp & Dohme LLC, priority 2023, published 2026)
Starred links: 1 amine or outer side, 2 acyl side, 3 side chain; linkers in the order of their positions; H or OH if unused. Non-standard residues stand in square brackets, D forms with d. F4bcpA = 3-[4-[(2S)-2-amino-2-carboxy-ethyl]phenyl]bicyclo[1.1.1]pentane-1-carboxylic acid, O=C([C@H](Cc1ccc(C23CC(C(=O)[*:3])(C2)C3)cc1)N[*:1])[*:2]; 3Pal4CO2H = 5-[(2S)-2-amino-2-carboxy-ethyl]pyridine-2-carboxylic acid, O=C([C@H](Cc1ccc(C(=O)[*:3])nc1)N[*:1])[*:2]; TyrEtNAc = (2S)-3-[4-(2-acetamidoethoxy)phenyl]-2-amino-propanoic acid, CC(=O)NCCOc1ccc(C[C@H](N[*:1])C(=O)[*:2])cc1; dPro(4R-(4-pyridylmethyl)) = O=C(O)[C@H]1C[C@@H](Cc2ccncc2)CN1; Ala(piperidin-4-yl) = O=C([C@H](CC1CCN([*:3])CC1)N[*:1])[*:2]; Trp(βS-Me,4-F) = C[C@@H](c1c[nH]c2cccc(F)c12)[C@H](N)C(=O)O; Bip(4'-COOH) = N[C@@H](Cc1ccc(-c2ccc(C(=O)O)cc2)cc1)C(=O)O; Ala(1-bicyclo(1.1.1)pentyl) = N[C@@H](CC12CC(C1)C2)C(=O)O; dPro(4R-Bzl(4-F)) = O=C(O)[C@H]1C[C@@H](Cc2ccc(F)cc2)CN1; Ala(morpholin-4-yl) = N[C@@H](CN1CCOCC1)C(=O)O; Ala(piperazin-1-yl) = N[C@@H](CN1CCNCC1)C(=O)O; Ala(pyrimidin-5-yl) = N[C@@H](Cc1cncnc1)C(=O)O; Phe(4-COOH) = N[C@@H](Cc1ccc(C(=O)O)cc1)C(=O)O; Pro(cis-4-F) = O=C(O)[C@@H]1C[C@H](F)CN1; cisHyp = O=C(O)[C@@H]1C[C@H](O)CN1; d(αMeD) = C[C@@](N)(CC(=O)O)C(=O)O; 4Pal = N[C@@H](Cc1ccncc1)C(=O)O; αMeS = C[C@](N)(CO)C(=O)O; Dab = NCC[C@H](N)C(=O)O; Dap = NC[C@H](N)C(=O)O; Aib = CC(C)(N)C(=O)O

B1: SEQ ID NO: 125 (peptide)
peptide: cyclo([Bip(4'-COOH)][4Pal][Phe(4-COOH)]G[Pro(cis-4-F)][Trp(βS-Me,4-F)][Aib]EW[Aib][Ala(morpholin-4-yl)]QSG[dPro(4R-Bzl(4-F))])
modifications: ring closure inferred
B2: SEQ ID NO: 122 (peptide)
peptide: cyclo([Bip(4'-COOH)][4Pal][Phe(4-COOH)]G[Pro(cis-4-F)][Trp(βS-Me,4-F)][Aib]EW[Aib][Ala(piperazin-1-yl)]QSG[dPro(4R-Bzl(4-F))])
modifications: ring closure inferred
B3: SEQ ID NO: 124 (peptide)
peptide: cyclo([Bip(4'-COOH)][4Pal][Phe(4-COOH)]G[Pro(cis-4-F)][Trp(βS-Me,4-F)][Aib]EW[Aib][Ala(morpholin-4-yl)]QSG[dPro(4R-Bzl(4-F))])
modifications: ring closure inferred
B4: SEQ ID NO: 127 (peptide)
peptide: cyclo([Bip(4'-COOH)][4Pal][Phe(4-COOH)]G[cisHyp][Trp(βS-Me,4-F)][Aib]SW[Aib][Ala(pyrimidin-5-yl)]Q[Dab]G[dPro(4R-Bzl(4-F))])
modifications: ring closure inferred; not fully specified (bridges); printed as Bip4CO2H-4Pal-Phe4COOH-G-Proc4OH-SbMeW4F-Aib-S-W-Aib-PyrimAla-Q-Dab-G-dProc4Bn4F
B5: SEQ ID NO: 128 (peptide)
peptide: cyclo([Bip(4'-COOH)][4Pal][Phe(4-COOH)]G[Pro(cis-4-F)][Trp(βS-Me,4-F)][Aib]SW[d(αMeD)][Ala(pyrimidin-5-yl)]Q[Dab]G[dPro(4R-Bzl(4-F))])
modifications: ring closure inferred; not fully specified (bridges); printed as Bip4CO2H-4Pal-Phe4COOH-G-Proc4F-SbMeW4F-Aib-S-W-daMeD-PyrimAla-Q-Dab-G-dProc4Bn4F
B6: SEQ ID NO: 121 (peptide)
peptide: cyclo([Bip(4'-COOH)][4Pal][Phe(4-COOH)]G[Pro(cis-4-F)][Trp(βS-Me,4-F)][Aib]EW[Aib][Ala(piperidin-4-yl)]QSG[dPro(4R-Bzl(4-F))])
modifications: ring closure inferred
B7: SEQ ID NO: 123 (peptide)
peptide: cyclo([Bip(4'-COOH)][4Pal][Phe(4-COOH)]G[Pro(cis-4-F)][Trp(βS-Me,4-F)][Aib]EW[Aib][Ala(morpholin-4-yl)]Q[Dab]G[dPro(4R-Bzl(4-F))])
modifications: ring closure inferred
B8: SEQ ID NO: 126 (peptide)
peptide: cyclo([Bip(4'-COOH)][4Pal][Phe(4-COOH)]G[Pro(cis-4-F)][Trp(βS-Me,4-F)][Aib]EW[Aib][Ala(morpholin-4-yl)]Q[Dab]G[dPro(4R-Bzl(4-F))])
modifications: ring closure inferred
B9: SEQ ID NO: 97 (peptide)
peptide: cyclo([Bip(4'-COOH)][Ala(1-bicyclo(1.1.1)pentyl)][Phe(4-COOH)]G[Pro(cis-4-F)][Trp(βS-Me,4-F)][αMeS]SW[Aib]SQ[Dab]G[dPro(4R-Bzl(4-F))])
SMILES: C[C@@H](c1c[nH]c2cccc(F)c12)[C@@H]1NC(=O)[C@@H]2C[C@H](F)CN2C(=O)CNC(=O)[C@H](Cc2ccc(C(=O)O)cc2)NC(=O)[C@H](CC23CC(C2)C3)NC(=O)[C@H](Cc2ccc(-c3ccc(C(=O)O)cc3)cc2)NC(=O)[C@H]2C[C@@H](Cc3ccc(F)cc3)CN2C(=O)CNC(=O)[C@H](CCN)NC(=O)[C@H](CCC(N)=O)NC(=O)[C@H](CO)NC(=O)C(C)(C)NC(=O)[C@H](Cc2c[nH]c3ccccc23)NC(=O)[C@H](CO)NC(=O)[C@](C)(CO)NC1=O
B10: SEQ ID NO: 98 (peptide)
peptide: cyclo([Bip(4'-COOH)][Ala(1-bicyclo(1.1.1)pentyl)][3Pal4CO2H]G[Pro(cis-4-F)][Trp(βS-Me,4-F)][Aib]EW[Aib][Ala(pyrimidin-5-yl)]Q[Dab]G[dPro(4R-Bzl(4-F))])
SMILES: C[C@@H](c1c[nH]c2cccc(F)c12)[C@@H]1NC(=O)[C@@H]2C[C@H](F)CN2C(=O)CNC(=O)[C@H](Cc2ccc(C(=O)O)nc2)NC(=O)[C@H](CC23CC(C2)C3)NC(=O)[C@H](Cc2ccc(-c3ccc(C(=O)O)cc3)cc2)NC(=O)[C@H]2C[C@@H](Cc3ccc(F)cc3)CN2C(=O)CNC(=O)[C@H](CCN)NC(=O)[C@H](CCC(N)=O)NC(=O)[C@H](Cc2cncnc2)NC(=O)C(C)(C)NC(=O)[C@H](Cc2c[nH]c3ccccc23)NC(=O)[C@H](CCC(=O)O)NC(=O)C(C)(C)NC1=O
B11: SEQ ID NO: 96 (peptide)
peptide: cyclo([Bip(4'-COOH)][Ala(1-bicyclo(1.1.1)pentyl)][Phe(4-COOH)]G[Pro(cis-4-F)][Trp(βS-Me,4-F)][Aib]EW[Aib][Dap]QSG[dPro(4R-(4-pyridylmethyl))])
SMILES: C[C@@H](c1c[nH]c2cccc(F)c12)[C@@H]1NC(=O)[C@@H]2C[C@H](F)CN2C(=O)CNC(=O)[C@H](Cc2ccc(C(=O)O)cc2)NC(=O)[C@H](CC23CC(C2)C3)NC(=O)[C@H](Cc2ccc(-c3ccc(C(=O)O)cc3)cc2)NC(=O)[C@H]2C[C@@H](Cc3ccncc3)CN2C(=O)CNC(=O)[C@H](CO)NC(=O)[C@H](CCC(N)=O)NC(=O)[C@H](CN)NC(=O)C(C)(C)NC(=O)[C@H](Cc2c[nH]c3ccccc23)NC(=O)[C@H](CCC(=O)O)NC(=O)C(C)(C)NC1=O
B12: SEQ ID NO: 95 (peptide)
peptide: cyclo([TyrEtNAc][4Pal][Phe(4-COOH)]G[Pro(cis-4-F)][Trp(βS-Me,4-F)][Aib]EW[Aib][4Pal]Q[Dab]G[dPro(4R-Bzl(4-F))])
SMILES: CC(=O)NCCOc1ccc(C[C@@H]2NC(=O)[C@H]3C[C@@H](Cc4ccc(F)cc4)CN3C(=O)CNC(=O)[C@H](CCN)NC(=O)[C@H](CCC(N)=O)NC(=O)[C@H](Cc3ccncc3)NC(=O)C(C)(C)NC(=O)[C@H](Cc3c[nH]c4ccccc34)NC(=O)[C@H](CCC(=O)O)NC(=O)C(C)(C)NC(=O)[C@H]([C@@H](C)c3c[nH]c4cccc(F)c34)NC(=O)[C@@H]3C[C@H](F)CN3C(=O)CNC(=O)[C@H](Cc3ccc(C(=O)O)cc3)NC(=O)[C@H](Cc3ccncc3)NC2=O)cc1
B13: SEQ ID NO: 99 (peptide)
peptide: cyclo([F4bcpA][Ala(1-bicyclo(1.1.1)pentyl)][Phe(4-COOH)]G[Pro(cis-4-F)][Trp(βS-Me,4-F)][Aib]EW[Aib][Ala(pyrimidin-5-yl)]Q[Dab]G[dPro(4R-Bzl(4-F))])
SMILES: C[C@@H](c1c[nH]c2cccc(F)c12)[C@@H]1NC(=O)[C@@H]2C[C@H](F)CN2C(=O)CNC(=O)[C@H](Cc2ccc(C(=O)O)cc2)NC(=O)[C@H](CC23CC(C2)C3)NC(=O)[C@H](Cc2ccc(C34CC(C(=O)O)(C3)C4)cc2)NC(=O)[C@H]2C[C@@H](Cc3ccc(F)cc3)CN2C(=O)CNC(=O)[C@H](CCN)NC(=O)[C@H](CCC(N)=O)NC(=O)[C@H](Cc2cncnc2)NC(=O)C(C)(C)NC(=O)[C@H](Cc2c[nH]c3ccccc23)NC(=O)[C@H](CCC(=O)O)NC(=O)C(C)(C)NC1=O

biological target: Recombinant human IL-1β (BioLegend 579404) (human, UniProt P01584 117-269); assay: cell-based or functional assay

Row | MRC5 IC50 [nM] | Binder
1 | 0.041 | B1
2 | 0.019 | B2
3 | 0.018 | B3
4 | 0.013 | B4
5 | 0.009 | B5
6 | 0.029 | B6
7 | 0.017 | B7
8 | 0.022 | B8

biological target: Recombinant human IL-1β (BioLegend 579404) (human, UniProt P01584 117-269); assay: cell-based or functional assay; remark: another data set of the same source

Row | MRC5 IC50 [nM] | Binder
9 | 0.036 | B9
10 | 0.058 | B10
11 | 0.067 | B11
12 | 0.054 | B12
13 | 0.031 | B13
